To fix the notation:
B1: AD-PRE1 (PACLOBUTRAZOL-RESISTANT-1 fused to GAL4AD) [Arabidopsis thaliana] / BD-IBH1 (ILI1 BINDING bHLH PROTEIN1 fused to GAL4BD) [Arabidopsis thaliana] (parent complex)
chain 1: MSNRRSRQSSSAPRISDNQMIDLVSKLRQILPEIGQRRRSDKASASKVLQETCNYIRNLNREVDNLSERLSQLLESVDEDSPEAAVIRSLLM
chain 2: MASADKLINTDVPEKDVFAFHFLQSLSNLRKQNPFDTPDQKNYRVRKIKKAAYVSMARAAGGSSRLWSRALLRRADKDDNKIVRFSRRKWKISSKRRRSNQRAPVVEEAAERLRNLVPGGGGMETSKLMEETAHYIKCLSMQVKVMQCLVDGLSPK

The variants in the first assay derive from B1. As to the kind of experiment: pull-down, band quantification normalized to input; parent: 0.32; read off a plot.
For the variant chain 1 S67E, the response is about 0.13 Pull-down/Input.

Turning to chain 1 S67A, the response is about 0.23 Pull-down/Input.

Variants of B1 are the subject of a further assay. As to the kind of experiment: yeast two-hybrid, quantitative β-galactosidase assay; parent: 3.9; read off a plot.
Consider chain 1 S67E, for which the response is ~2.3 β-gal units.

As for chain 1 S67A, the response is ~3.6 β-gal units.

In another assay the parent is B1. As to the kind of experiment: Ratiometric-Bimolecular Fluorescence Complementation (rBiFC) in tobacco; n = 50 images; parent: 0.42; read off a plot.
For the variant chain 1 S67E, the response was about 0.16 YFP/RFP.

The values are drawn from article PMC7729563, “Phospho-Mutant Activity Assays Provide Evidence for the Negative Regulation of Transcriptional Regulator PRE1 by Phosphorylation” (International Journal of Molecular Sciences, 2020).
